Source: paper PMC3828642, “1-Aminocyclopropane-1-carboxylic acid oxidase reaction mechanism and putative post-translational activities of the ACCO protein” (AoB Plants, 2013)

Substrate: NC1(C(=O)O)CC1
Experiment: purified protein
Conditions: Fe(II), ascorbate, bicarbonate active-site Fe(II); Arg175, Arg244 and Ser246 affect ACC binding

B1: 1-aminocyclopropane-1-carboxylic acid oxidase (ACCO1) (Malus domestica) (protein)
chain: MATFPVVDLSLVNGEERAATLEKINDACENWGFFELVNHGMSTELLDTVEKMTKDHYKKTMEQRFKEMVAAKGLDDVQSEIHDLDWESTFFLRHLPSSNISEIPDLEEEYRKTMKEFAVELEKLAEKLLDLLCENLGLEKGYLKKVFYGSKGPNFGTKVSNYPPCPKPDLIKGLRAHSDAGGIILLFQDDKVSGLQLLKDGEWVDVPPMHHSIVINLGDQIEVITNGKYKSVMHRVIAQSDGTRMSIASFYNPGNDSFISPAPAVLEKKTEDAPTYPKFVFDDYMKLYSGLKFQAKEPRFEAMKAKESTPVATA
B1 gave a Km of 51 µM.
